Sequences and labels used below:
B1: KinI-3 construct V195S566 (protein)
chain: MVSGYNYGIPHSCIRQNTSEKQNPWTEMEKIRVCVRKRPLGMREVRRGEINIITVEDKETLLVHEKKEAVDLTQYILQHVFYFDEVFGEACTNQDVYMKTTHPLIQHIFNGGNATCFAYGQTGAGKTYTMIGTHENPGLYALAAKDIFRQLEVSQPRKHLFVWISFYEIYCGQLYDLLNRRKRLFAREDSKHMVQIVGLQELQVDSVELLLEVILKGSKERSTGATGVNADSSRSHAVIQIQIKDSAKRTFGRISFIDLAGSERAADARDSDRQTKMEGAEINQSLLALKECIRALDQEHTHTPFRQSKLTQVLKDSFIGNAKTCMIANISPSHVATEHTLNTLRYADRVKELKKGIKCCTSVTSRNRTSGNSLEHHHHHH
B2: KinI-3 construct D143L546 (protein)
chain: DDSQYHTKTGILNATAGDSYVQTEISTSLFSPNYLSAILGDCDIPIIQRISHVSGYNYGIPHSCIRQNTSEKQNPWTEMEKIRVCVRKRPLGMREVRRGEINIITVEDKETLLVHEKKEAVDLTQYILQHVFYFDEVFGEACTNQDVYMKTTHPLIQHIFNGGNATCFAYGQTGAGKTYTMIGTHENPGLYALAAKDIFRQLEVSQPRKHLFVWISFYEIYCGQLYDLLNRRKRLFAREDSKHMVQIVGLQELQVDSVELLLEVILKGSKERSTGATGVNADSSRSHAVIQIQIKDSAKRTFGRISFIDLAGSERAADARDSDRQTKMEGAEINQSLLALKECIRALDQEHTHTPFRQSKLTQVLKDSFIGNAKTCMIANISPSHVATEHTLNTLRYADRVKEL
B3: KinI-3 construct E213/L546 (protein)
chain: MEKQNPWTEMEKIRVCVRKRPLGMREVRRGEINIITVEDKETLLVHEKKEAVDLTQYILQHVFYFDEVFGEACTNQDVYMKTTHPLIQHIFNGGNATCFAYGQTGAGKTYTMIGTHENPGLYALAAKDIFRQLEVSQPRKHLFVWISFYEIYCGQLYDLLNRRKRLFAREDSKHMVQIVGLQELQVDSVELLLEVILKGSKERSTGATGVNADSSRSHAVIQIQIKDSAKRTFGRISFIDLAGSERAADARDSDRQTKMEGAEINQSLLALKECIRALDQEHTHTPFRQSKLTQVLKDSFIGNAKTCMIANISPSHVATEHTLNTLRYADRVKELLEHHHHHH
B4: KinI-3 construct E233F541 (protein)
chain: LGMREVRRGEINIITVEDKETLLVHEKKEAVDLTQYILQHVFYFDEVFGEACTNQDVYMKTTHPLIQHIFNGGNATCFAYGQTGAGKTYTMIGTHENPGLYALAAKDIFRQLEVSQPRKHLFVWISFYEIYCGQLYDLLNRRKRLFAREDSKHMVQIVGLQELQVDSVELLLEVILKGSKERSTGATGVNADSSRSHAVIQIQIKDSAKRTFGRISFIDLAGSERAADARDSDRQTKMEGAEINQSLLALKECIRALDQEHTHTPFRQSKLTQVLKDSFIGNAKTCMIANISPSHVATEHTLNTLRYAD
B5: KinI-3 construct E213/S566 (protein)
chain: MEKQNPWTEMEKIRVCVRKRPLGMREVRRGEINIITVEDKETLLVHEKKEAVDLTQYILQHVFYFDEVFGEACTNQDVYMKTTHPLIQHIFNGGNATCFAYGQTGAGKTYTMIGTHENPGLYALAAKDIFRQLEVSQPRKHLFVWISFYEIYCGQLYDLLNRRKRLFAREDSKHMVQIVGLQELQVDSVELLLEVILKGSKERSTGATGVNADSSRSHAVIQIQIKDSAKRTFGRISFIDLAGSERAADARDSDRQTKMEGAEINQSLLALKECIRALDQEHTHTPFRQSKLTQVLKDSFIGNAKTCMIANISPSHVATEHTLNTLRYADRVKELKKGIKCCTSVTSRNRTSGNSLEHHHHHH
B6: KinI-3 construct E166L546 (protein)
chain: EISTSLFSPNYLSAILGDCDIPIIQRISHVSGYNYGIPHSCIRQNTSEKQNPWTEMEKIRVCVRKRPLGMREVRRGEINIITVEDKETLLVHEKKEAVDLTQYILQHVFYFDEVFGEACTNQDVYMKTTHPLIQHIFNGGNATCFAYGQTGAGKTYTMIGTHENPGLYALAAKDIFRQLEVSQPRKHLFVWISFYEIYCGQLYDLLNRRKRLFAREDSKHMVQIVGLQELQVDSVELLLEVILKGSKERSTGATGVNADSSRSHAVIQIQIKDSAKRTFGRISFIDLAGSERAADARDSDRQTKMEGAEINQSLLALKECIRALDQEHTHTPFRQSKLTQVLKDSFIGNAKTCMIANISPSHVATEHTLNTLRYADRVKEL
B7: KinI-3 construct V195L546 (protein)
chain: VSGYNYGIPHSCIRQNTSEKQNPWTEMEKIRVCVRKRPLGMREVRRGEINIITVEDKETLLVHEKKEAVDLTQYILQHVFYFDEVFGEACTNQDVYMKTTHPLIQHIFNGGNATCFAYGQTGAGKTYTMIGTHENPGLYALAAKDIFRQLEVSQPRKHLFVWISFYEIYCGQLYDLLNRRKRLFAREDSKHMVQIVGLQELQVDSVELLLEVILKGSKERSTGATGVNADSSRSHAVIQIQIKDSAKRTFGRISFIDLAGSERAADARDSDRQTKMEGAEINQSLLALKECIRALDQEHTHTPFRQSKLTQVLKDSFIGNAKTCMIANISPSHVATEHTLNTLRYADRVKEL
B8: KinI-3 construct D183L546 (protein)
chain: MDCDIPIIQRISHVSGYNYGIPHSCIRQNTSEKQNPWTEMEKIRVCVRKRPLGMREVRRGEINIITVEDKETLLVHEKKEAVDLTQYILQHVFYFDEVFGEACTNQDVYMKTTHPLIQHIFNGGNATCFAYGQTGAGKTYTMIGTHENPGLYALAAKDIFRQLEVSQPRKHLFVWISFYEIYCGQLYDLLNRRKRLFAREDSKHMVQIVGLQELQVDSVELLLEVILKGSKERSTGATGVNADSSRSHAVIQIQIKDSAKRTFGRISFIDLAGSERAADARDSDRQTKMEGAEINQSLLALKECIRALDQEHTHTPFRQSKLTQVLKDSFIGNAKTCMIANISPSHVATEHTLNTLRYADRVKELLEHHHHHH

One series concerns the target microtubules.
With B1, the MT depolymerization entry is listed as “yes”.

As for B2, the MT depolymerization result is recorded as “no”.

In the case of B3, the MT depolymerization entry is “yes”.

On to B4, for which the MT depolymerization result is on record as “no”.

With B5, the MT depolymerization result was “weak”.

For the molecule B6, the MT depolymerization entry is “no”.

In the case of B7, the MT depolymerization entry was “no”.

Regarding B8, the MT depolymerization entry is “yes”.

The next series deals with microtubules. The source holds these as a separate data set.
Regarding “KinI-3 protein, bacterially expressed and purified (construct not stated)”, the “microtubule depolymerization (tubulin in supernatant after centrifugation, SDS PAGE), with ATP” value is “Track 3 shows an increase in tubulin in the supernatant that indicates depolymerization in the presence of ATP” and the “microtubule depolymerization (tubulin in supernatant after centrifugation, SDS PAGE), without hydrolysable ATP” value is “No depolymerization was observed in the absence of ATP (track 4), in the presence of AMP-PNP (track 5) or in the presence of ADP (track 6)”.

Values taken from US20050054041.
